In article PMC4705663:
pKd: −log10 of the molar value.

How the values were obtained:
[1] = molecular target: histone H3 tail H3 tail (Homo sapiens) (UniProt P68431); settings: cited from earlier work
[2] = molecular target: Oregon Green 488-labeled BRPF1 PZP domain (UniProt P55201); test: FRET or BRET; HIFI-FRET titration; Atto647N-labeled mononucleosomes titrated against three concentrations of Oregon Green labeled PZP; 25 mM Tris 7.5, 200 mM NaCl, 0.01% NP40 and CHAPS; quadratic fit; apparent Kd
BRPF1 PZP domain [3] = test: HI-FI FRET; settings: 200 mM NaCl, HI-FI FRET: 25 mM Tris pH 7.5, 200 mM NaCl, 0.01% NP40 and CHAPS, EMSA: 25 mM Tris-HCl pH 7.5, 150 mM NaCl, 5 mM DTT, +/-10% glycerol, RT 30 min, NMR: 25 mM …
LexA = test: FRET; settings: LexA titration; S1/2 of nucleosome unwrapping, 75 mM NaCl; HI-FI FRET: 25 mM Tris pH 7.5, 200 mM NaCl, 0.01% NP40 and CHAPS; EMSA: 25 mM Tris-HCl pH 7.5, 150 mM NaCl, 5 mM DTT, +/-10% glycerol, RT 30 min; NMR: 25 mM …
BRPF1 PZP domain [4] = test: FRET; settings: with LexA fixed at its S1/2 (2 uM); HI-FI FRET: 25 mM Tris pH 7.5, 200 mM NaCl, 0.01% NP40 and CHAPS; EMSA: 25 mM Tris-HCl pH 7.5, 150 mM NaCl, 5 mM DTT, +/-10% glycerol, RT 30 min; NMR: 25 mM …
[5] = molecular target: NCP165, mononucleosome assembled with unlabeled Xenopus octamer on 165 bp 601 DNA (Xenopus); test: AUC; sedimentation velocity; unlabeled NCP165 incubated with increasing molar ratios of PZP overnight at 4°C; 20 mM Tris 7.5, 50 mM NaCl, 2 mM arginine; 20°C, 40 000 rpm; free components also run alone
[6] = molecular target: Atto647N-labeled NCP165 (Xenopus octamer labeled at H4E63C, 165 bp 601 DNA) (Xenopus); test: FRET or BRET; HIFI-FRET Job plot (continuous variation); Oregon Green 488-PZP donor and Atto647N-NCP165 acceptor; total concentration of reactants constant at 1 μM, 50 nM steps

BRPF1 PZP PZP (from UniProt P55201)
pKd [1]: 4.92

Atto647N-labeled NCP147 (Xenopus octamer labeled at H4E63C, 147 bp 601 DNA) (complex)
pKd [2]: < 6.00

NCP147 (FRET)
pKd (BRPF1 PZP domain [3]; apparent, curve did not plateau): < 6.00

Atto647N-labeled NCP165 (Xenopus octamer labeled at H4E63C, 165 bp 601 DNA) (complex)
pKd [2]: 6.56

601L Cy3-Cy5 NCP with LexA site
K half (LexA): 2000 nM | K half (BRPF1 PZP domain [4]): 4 µM

BRPF1 PZP domain (amino acids 267–454) (from UniProt P55201 267-454) (domain or fragment)
stoichiometry N [5]: 2

Oregon Green 488-labeled BRPF1 PZP domain (from UniProt P55201 267-454) (domain or fragment)
stoichiometry N [6]: 1.8

NCP165
pKd (BRPF1 PZP domain [3]; apparent Kd): 6.56
